Source: US20210139607A1 (JACKSON LABORATORY, published 2021)

Target: T1, human N-glycanase 1 (NGLY-1) (human, UniProt Q96IV0 2-654)
T1 construct: Endogenous protein in cell lysates, denatured on immunoblots; also called human NGLY1 protein
T1 sequence (looked up): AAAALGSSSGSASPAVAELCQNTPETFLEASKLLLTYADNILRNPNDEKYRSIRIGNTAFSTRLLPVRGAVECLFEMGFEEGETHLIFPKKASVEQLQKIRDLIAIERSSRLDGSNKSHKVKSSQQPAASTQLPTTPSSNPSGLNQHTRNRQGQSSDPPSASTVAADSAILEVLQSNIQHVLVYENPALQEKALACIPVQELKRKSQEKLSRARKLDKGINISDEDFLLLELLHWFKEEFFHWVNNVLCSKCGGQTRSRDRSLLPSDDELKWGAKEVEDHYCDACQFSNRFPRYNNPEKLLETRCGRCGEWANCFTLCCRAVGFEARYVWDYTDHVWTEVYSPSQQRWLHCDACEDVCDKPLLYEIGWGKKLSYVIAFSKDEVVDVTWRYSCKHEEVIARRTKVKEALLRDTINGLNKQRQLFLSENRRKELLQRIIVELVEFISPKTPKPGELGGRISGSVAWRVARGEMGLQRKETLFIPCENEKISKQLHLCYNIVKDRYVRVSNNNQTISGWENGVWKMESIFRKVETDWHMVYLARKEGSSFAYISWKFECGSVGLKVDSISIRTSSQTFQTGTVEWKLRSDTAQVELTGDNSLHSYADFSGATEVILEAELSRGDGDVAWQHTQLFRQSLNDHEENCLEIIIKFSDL
Assay: immunoblot on isogenic human NGLY1 null and wild type iPS cell lines
Protocol: The conjugate was injected into female BALB/cJ mice at a dose of 10 μg per mouse with Alum adjuvant. Mice were immunized by i.p injection three times approximately two (2) weeks apart. Ten days after the third immunization, splenocytes were isolated and fused with SP2 myeloma cells to create hybridoma cell lines. Hybridomas were cultured in 96-well plates and supernatants screened on protein arrays and by ELISA. Positive clones were further validated by western blot using lysates prepared from C57BL/6J and the CRISPR/Cas9 generated null strain as positive and negative controls. Additional immunoblots were used to identify additional clones that generated antibodies capable of cross reacting with human NGLY1 protein. Isogenic human derived NGLY1 null and wild type iPS cell lines providing positive and negative controls evaluation of anti-human NGLY1 cross-reactivity were provided. A single hybridoma gave rise to clone 5G8 that generated an antibody that was specific to both murine and human NGLY1 protein and was used for subsequent studies.

binding result: binds
B1: mouse anti-NGly-1 monoclonal antibody, clone 5G8 (antibody, V domains shown)
VH: QVQLQQSGAELVRPGTSVKVSCKASGYAFINYLIEWVKQRPGQGLEWIGIISPGSGSTNYNEEFRGRATLTADRSSSTAYMQLSSLTSDDSAVYFCARGGLTHYSGSTYEEGFDFWGQGTTLTVSS
VL: QAVVTQESALTTSPGETVTLTCRSSTGAVTTTNYANWVQEKPDHLFTGLIGGTNNRAPGVPARFSGSLIGDKAALTITGAQTDDEAIYFCALWYSNRWVFGGGTKLTVLG
notes: also called anti-NGly-1 monoclonal antibody of the present disclosure; Mouse monoclonal (anti-mouse peptide), JAX Monoclonal Service
